B1: ZNF8 (parent)
chain: VHVIGVEEPSVGASMLFDIREST

Variants of: B1
Assay: protein stability index of a GFP-peptide fusion (GPS, HEK-293T) (PSI 1-6); higher = more stable
Conditions: c terminus: native
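Further: lentivirally expressed fusions sorted by FACS into six bins by GFP to DsRed ratio, PSI derived from sequencing read proportions per bin multiplied by bin number.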

Protein stability index, by site and new letter:
E7: T 1.61, N 1.88, D 1.86, G 1.94, V 2.84, R 1.33, A 1.69, M 2.14, C 1.81, F 3.54, W 3.4, P 2.2, K 1.72, H 1.15, L 1.92, Q 1.55, I 1.7, S 1.94, Y 2.91
E21: Q 1.29, G 2.42, W 3.39, D 2.38, S 1.76, M 2.04, L 2.64, C 2.9, Y 2.4, I 3.55, K 2.2, H 1.95, F 2.77, A 2.37, T 2.01, P 1.42, R 1.53, N 2.08, V 1.78
S14: T 2.26, D 2.62, E 2.28, I 3.13, F 2.28, C 1.54, Q 2.12, Y 2.78, G 1.92, V 3.14, R 1.9, W 3.13, M 2.31, H 1.95, P 2.63, A 1.86, K 2, N 2.4, L 2.31
V11: P 2.65, R 1.9, A 2.38, L 1.85, H 2.42, G 2.28, N 2.35, Y 1.92, Q 2.1, C 1.91, T 2.24, S 2.33, D 2.69, F 2.17, K 2.27, W 1.44, I 1.91, E 2.87, M 1.82
G5: Y 2.35
L16: N 3.6, K 2.64, T 2.44, P 2.48, S 2.83, F 1.58, A 2.52, R 2.98, W 1.41, H 2.71, E 3.17, G 2.95, D 3.53, Q 2.87, M 1.94, C 2.19, V 2, I 2.06, Y 2.31
F17: L 2.03, H 3.17, V 2.21, T 2.68, W 2.28, G 3.66, S 3.11, P 3.77, N 3.33, Y 2.15, C 2.71, R 3.08, M 2.52, I 1.74, E 3.91, A 3.44, K 3.4, D 3.79, Q 3.41
M15: G 3.15, I 2.59, C 2.49, K 3.24, D 2.93, N 2.75, T 2.3, W 2.34, Q 2.75, P 2.78, H 2.4, R 2.47, Y 2.2, V 1.79, F 1.62, S 2.78, E 3.67, A 2.88, L 1.74
S22: N 3.08, T 2.35, Y 1.59, E 2.58, D 2.62, C 2.52, Q 2.2, A 2.38, L 1.68, G 1.79, H 2.55, K 2.3, W 1.36, I 1.69, P 2.42, R 1.92, M 2.55, F 2.23, V 1.55
V6: E 2.99, P 1.82, Y 1.9, G 2.54, M 1.76, T 2.33, C 1.96, W 1.76, Q 2.64, H 2.46, D 3.75, K 2.61, S 2.75, N 3.61, A 2.52, F 2.27, I 1.75, R 2.35, L 2.25
E8: M 1.95, D 1.69, W 4.73, L 2.75, N 1.48, Q 1.78, P 1.75, S 2.09, C 3.48, T 1.73, G 2.18, K 2.11, H 2.08, I 4.45, V 2.45, R 1.89, A 2.25, Y 2.87, F 2.49
S10: N 2.23, Y 2.02, V 2.16, A 2.58, M 1.52, W 1.68, H 2.1, R 1.71, K 1.99, I 2.91, C 1.85, E 2.25, F 1.26, T 2.24, D 2.48, P 2.03, Q 2.28, L 1.84, G 2.1
T23: F 1.61, E 2.37, D 2.37, I 1.69, A 2.01, H 2.45, G 2.12, L 1.79, C 1.76, K 2.22
A13: E 2.61, G 2.74, L 2.41, I 2.78, D 2.69, T 1.93, H 1.95, M 1.57, Q 1.98, S 1.96, R 1.97, Y 1.66, W 3.12, C 1.34, V 1.87, P 2.51, K 2.2, N 2.31, F 2.8
D18: C 2.4, S 1.75, W 2.19, P 1.84, L 3, Q 1.98, V 2.9, T 1.69, F 2.25, A 1.69, H 1.39, M 2.02, I 3.24, K 1.42, Y 2.55, E 1.31, R 1.59, G 1.65, N 2.48
G12: K 1.9, R 2.4, Y 2.95, P 2.16, D 2.87, C 1.78, W 2.88, F 2.1, Q 1.88, H 2.1, L 1.52, V 1.7, M 1.71, E 2.45, T 1.56, S 2.19, I 1.78, N 2.29, A 1.93
I19: M 2.33, E 3.34, P 3.1, T 2.91, L 2.04, F 1.64, W 1.51, Y 2.06, A 3.07, V 2.38, K 3.14, N 3.23, H 3.37, R 2.7, D 3.65, Q 3.4, S 3.29, C 2.37, G 2.72
R20: G 2.37, D 2.96, M 1.79, A 1.64, K 2.4, I 1.86, W 2.43, N 3.1, V 1.57, T 2.4, Y 1.81, F 2.49, S 2.63, Q 2.36, H 2.68, E 3.26, C 1.85, L 1.55, P 2.48
P9: Y 2.19, S 1.73, F 2.45, T 2.12, D 2.53, H 1.74, G 2.31, N 2.27, C 1.87, Q 2.17, I 2.47, V 1.44, A 2.65, E 2.44, M 2.09, L 2.23, W 3.09, K 2.31, R 2.27
